Assays:
[1] = biological target: human CD74, naturally expressed on cells (Raji, Daudi, M4A4, NCI-H747 cells; human tonsil tissue) (human) (UniProt P04233); experiment: cell-based or functional assay
[2] = biological target: T1, HisCD74v1 (recombinant extracellular domain of human CD74 variant 1, N-terminal hexameric His tag) (human, UniProt P04233 73-296); experiment: ELISA, coated recombinant CD74v1 extracellular domain
T1 construct: also called recombinant CD74v1; CD74v1 extracellular domain
T1 sequence: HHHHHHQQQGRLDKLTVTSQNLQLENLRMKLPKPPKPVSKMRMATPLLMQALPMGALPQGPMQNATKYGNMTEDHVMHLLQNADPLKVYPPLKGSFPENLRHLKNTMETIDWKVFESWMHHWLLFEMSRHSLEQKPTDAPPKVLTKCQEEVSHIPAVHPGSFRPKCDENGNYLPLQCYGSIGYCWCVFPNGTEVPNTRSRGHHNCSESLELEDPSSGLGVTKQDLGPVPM
Description: (§1) ELISA plates (Greiner BioOne) were coated 0/N at 4° C. with 2 μg/mL, 100 μL per well, recombinant CD74v1 or CD74v2 in PBS (B. Braun Melsungen AG). Sequences and production of the isoforms were described supra. ELISA wells were washed three times with PBS containing 0.05% Tween-20 (PBST), emptied, and blocked with 1% (w/v) BSA fraction V (Roche) in PBS at RT for 1 h while shaking (300 rpm), and emptied. Subsequently, 100 μL anti-CD74 HuMab antibodies were added in serial dilutions in 0.2% (w/v) BSA fraction V in PBST (assay buffer) and incubated while shaking at RT for 90 min. ELISA plates were washed three times with PBST, emptied, and bound HuMab antibodies were detected using HRP-conjugated goat-anti human IgG (100 μL; 1:5,000; Peroxidase Affinipure Goat anti-human IgG, F(ab′)2 Fragment Specific [min X Bov,Hrs,Ms Sr Prot]; Jackson Immunoresearch) in assay buffer and incubated while shaking at RT for 90 min. Plates were washed three times with PBST, emptied, and incubated with 100 μL ABTS solution (50 ml ABTS buffer [Roche] and one ABTS tablet [50 mg; Roche]). After incubation in the dark at RT for 30 min, the reaction was stopped by addition of 100 μL per well oxalic acid (2% [w/v]). Plates were measured at OD 405 nm in an ELISA reader (Biotek Instruments, EL808 Absorbance Microplate Reader).
(§2) Isotype control Ab IgG1-b12 was used as a negative control. Binding curves were analyzed using non-linear regression (sigmoidal dose-response with variable slope) using GraphPad Prism 5 software (GraphPad Software, San Diego, Calif., USA).

[3] = biological target: T2, HisCD74v2 (recombinant extracellular domain of human CD74 variant 2, N-terminal hexameric His tag) (human, UniProt P04233 73-296); experiment: ELISA, coated recombinant CD74v2 extracellular domain
T2 construct: also called recombinant CD74v2; CD74v2 extracellular domain
T2 sequence: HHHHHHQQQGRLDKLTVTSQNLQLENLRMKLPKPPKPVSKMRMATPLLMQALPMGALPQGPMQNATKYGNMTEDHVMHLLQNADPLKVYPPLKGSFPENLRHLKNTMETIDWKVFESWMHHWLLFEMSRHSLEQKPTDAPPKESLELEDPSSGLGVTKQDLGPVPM
Description: as §1, §2

[4] = biological target: human CD74, naturally expressed on cells (Raji, Daudi, M4A4, NCI-H747 cells; human tonsil tissue) (human) (UniProt P04233); experiment: FACS on Daudi cells at 0° C., Alexa-488-labeled antibody displaced by excess unlabeled antibody
[5] = biological target: human CD74, naturally expressed on cells (Raji, Daudi, M4A4, NCI-H747 cells; human tonsil tissue) (human) (UniProt P04233); experiment: FACS on Daudi cells; mean of three experiments
[6] = biological target: human CD74, naturally expressed on cells (Raji, Daudi, M4A4, NCI-H747 cells; human tonsil tissue) (human) (UniProt P04233); experiment: FACS on Daudi cells, 10 µg/mL; mean of three experiments
[7] = biological target: T1, HisCD74v1 (recombinant extracellular …); experiment: ELISA, coated recombinant CD74v1 extracellular domain (CD74ECDHis); mean of four experiments
Description: ELISA plates (Greiner BioOne) were coated with 2 μg/mL, 100 μL per well, recombinant CD74ECDHis in PBS (B. Braun Melsungen AG) at 4° C., 0/N. ELISA plates were emptied and blocked with 200 μL/well PBS containing 0.05% Tween-20 (PBST) while shaking (300 rpm), at RT for 1 hour, washed three times with 300 μL PBST and emptied. Subsequently, 100 μL anti-CD74 ADCs or unconjugated CD74-specific HuMab antibodies were added in serial dilutions in PBST and incubated while shaking at RT for 2 hours. ELISA plates were washed with PBST and emptied. Bound anti-CD74 ADCs and unconjugated HuMab antibodies were detected by addition of HRP-conjugated mouse-anti human IgG1 (100 μL; 0.015 μg/mL; Sanquin; # M1328) in PBST and incubation while shaking, at RT for 2 hours. Plates were washed with PBST, emptied and incubated with 100 μL ABTS solution (50 ml ABTS buffer [Roche] and one ABTS tablet [50 mg; Roche]). After incubation in the dark while shaking, at RT for 30 min, the reaction was stopped by incubation with 100 μL per well oxalic acid (2% [w/v]; Riedel de Haen) in the dark while shaking, for 10 min. Plates were measured at OD 405 nm in an ELISA reader (Biotek Instruments, EL808 Absorbance Microplate Reader).
IgG1-b12, an antibody binding to a non-related antigen, was used as a negative control (both unconjugated as well as in ADC format). Binding curves were analyzed by non-linear regression (sigmoidal dose-response with variable slope) using GraphPad Prism 5 software (GraphPad Software, San Diego, Calif., USA).

EC50 [2] [µg/mL]	EC50 [3] [µg/mL]	koff [4] [s⁻¹]	time until half of the bound labeled antibody was replaced [4] [min]	EC50 [5] [µg/mL]	Maximal binding (MFI at 10 µg/mL) [6] [MFI]	EC50 [7] [µg/mL]	Molecule	% viability (minimal) of Raji cells, anti-kappa-ETA' assay [1] [%]	% kill of Daudi cells at 10 µg/mL [1] [%]	% kill of M4A4 cells at 10 µg/mL [1] [%]	% kill of NCI-H747 cells at 10 µg/mL [1] [%]	% kill of Raji cells at 10 µg/mL [1] [%]	IC50 of killing of Daudi cells [1] [µg/mL]	IC50 of killing of M4A4 cells [1] [µg/mL]	IC50 of killing of NCI-H747 cells [1] [µg/mL]	IC50 of killing of Raji cells [1] [µg/mL]
				0.05	3790	0.03	HuMab-CD74-011-vcMMAE (antibody, IgG1, V domains shown, drug-linker vcMMAE alkylated to the cysteines of the reduced antibody (DAR 3.8-3.9), Antibody-drug conjugate of HuMab-CD74-011 (IgG1,kappa); also called vcMMAE-conjugated HuMab-CD74-011) VH: QVQLVESGGGVVQPGRSLRLSCAASGFTFSSYGMHWVRQAPDKGLEWVAVIWYDGSNKYYADSVKGRFTISRDNSKNTLYLQMNSLRAEDTAVYYCARGGTLVRGAMYGTDVWGQGTTVTVSS VL: DIQMTQSPSSLSASVGDRVTITCRASQGISSWLAWYQQKPEKAPKSLIYAASSLQSGVPSRFSGSGSGTDFTLTISSLQPEDFATYYCQQYNSYPLTFGGGTKVEIK		86	100	40	89	0.02	0.32	7.91	0.04
				0.05	5330	0.02	HuMab-CD74-011-mcMMAF (antibody, IgG1, V domains shown, drug-linker mcMMAF alkylated to the cysteines of the reduced antibody (DAR 3.9 by HIC), Antibody-drug conjugate of HuMab-CD74-011 (IgG1,kappa)) VH: QVQLVESGGGVVQPGRSLRLSCAASGFTFSSYGMHWVRQAPDKGLEWVAVIWYDGSNKYYADSVKGRFTISRDNSKNTLYLQMNSLRAEDTAVYYCARGGTLVRGAMYGTDVWGQGTTVTVSS VL: DIQMTQSPSSLSASVGDRVTITCRASQGISSWLAWYQQKPEKAPKSLIYAASSLQSGVPSRFSGSGSGTDFTLTISSLQPEDFATYYCQQYNSYPLTFGGGTKVEIK		92	96	17	92	0.01	0.1		0.01
				0.26	2860	0.04	HuMab-CD74-005-vcMMAE (antibody, IgG1, V domains shown, drug-linker vcMMAE alkylated to the cysteines of the reduced antibody (DAR 3.9-4.0), Antibody-drug conjugate of HuMab-CD74-005 (IgG1,kappa); also called vcMMAE-conjugate of HuMab-CD74-005) VH: QVQLVESGGGVVQPGRSLRLSCAASGFTFSSYAMHWVRQAPGKGLEWVAVISYDGSNKYYADSVKGRFTISRDNSKNTLYLQMNSLRAEDTAVYYCASGRYYGSGSYSSYFDYWGQGTLVTVSS VL: DIQMTQSPSSLSASVGDRVTITCRASQGISSWLAWFQQKPEKAPKSLIYAASSLQSGVPSRFSGSGSGTDFTLTISSLQPEDFATYYCQQYNSYPLTFGGGTKVEIK		85	100	41	88	0.08	0.56	7.48	0.11
				0.03	4050	0.02	HuMab-CD74-006-mcMMAF (antibody, IgG1, V domains shown, drug-linker mcMMAF alkylated to the cysteines of the reduced antibody (DAR 3.7-4.1), Antibody-drug conjugate of HuMab-CD74-006 (IgG1,kappa)) VH: QVQLVESGGGVVQPGRSLRLSCAASGFTFSSYAMHWVRQAPGKGLEWVAVISYDGSIKYYADSVKGRFTISRDNSKNTLYLQMNSLRVEDTAVFYCARGREITSQNIVILLDYWGQGTLVTVTS VL: DIQMTQSPSSLSASVGDRVTITCRASQGISSWLAWYQQKPEKAPKSLIYAASSLQSGVPSRFSGSGSGTDFTLTISSLQPEDFATYYCQQYNSYPLTFGGGTKVEIK		93	97	21	93	0.01	0.12		0.01
				0.03	3280	0.03	HuMab-CD74-006-vcMMAE (antibody, IgG1, V domains shown, drug-linker vcMMAE alkylated to the cysteines of the reduced antibody (DAR 4.0), Antibody-drug conjugate of HuMab-CD74-006 (IgG1,kappa); also called vcMMAE-conjugated HuMab-CD74-006) VH: QVQLVESGGGVVQPGRSLRLSCAASGFTFSSYAMHWVRQAPGKGLEWVAVISYDGSIKYYADSVKGRFTISRDNSKNTLYLQMNSLRVEDTAVFYCARGREITSQNIVILLDYWGQGTLVTVTS VL: DIQMTQSPSSLSASVGDRVTITCRASQGISSWLAWYQQKPEKAPKSLIYAASSLQSGVPSRFSGSGSGTDFTLTISSLQPEDFATYYCQQYNSYPLTFGGGTKVEIK		85	100	49	90	0.03	0.28	6.12	0.05

Continued, molecule first:

Molecule	EC50 [2] [µg/mL]	EC50 [3] [µg/mL]	koff [4] [s⁻¹]	time until half of the bound labeled antibody was replaced [4] [min]	EC50 [5] [µg/mL]	Maximal binding (MFI at 10 µg/mL) [6] [MFI]	EC50 [7] [µg/mL]	% viability (minimal) of Raji cells, anti-kappa-ETA' assay [1] [%]	% kill of Daudi cells at 10 µg/mL [1] [%]	% kill of M4A4 cells at 10 µg/mL [1] [%]	% kill of NCI-H747 cells at 10 µg/mL [1] [%]	% kill of Raji cells at 10 µg/mL [1] [%]	IC50 of killing of Daudi cells [1] [µg/mL]	IC50 of killing of M4A4 cells [1] [µg/mL]	IC50 of killing of NCI-H747 cells [1] [µg/mL]	IC50 of killing of Raji cells [1] [µg/mL]
IgG1-b12 (antibody)								85.9								
HuMab-CD74-008 (antibody, V domains shown, Human IgG,kappa antibody (HuMab) produced transiently in HEK-293F cells; also called antibody 008) VH: QVQLVESGGGVVQPGRSLRLSCAASGFTFSSYAMHWVRQAPGKGLEWVAVISYDGSNKYYADSVKGRFTISRDNSKNTLYLQMNSLRAEDTAVYYCARGREITSQNIVILLDYWGQGTLVTVSS VL: DIQMTQSPSSLSASVGDRVTITCRASQGISSWLAWYQQKPEKAPKSLIYAASSLQSGVPSRFSGSGSGTDFTLTISSLQPEDFATYYCQQYNSYPLTFGGGTKVEIK	1.39	0.759	0.00333	4												
HuMab-CD74-005-mcMMAF (antibody, IgG1, V domains shown, drug-linker mcMMAF alkylated to the cysteines of the reduced antibody (DAR 3.9-4.0), Antibody-drug conjugate of HuMab-CD74-005 (IgG1,kappa); also called mcMMAF-conjugate of HuMab-CD74-005) VH: QVQLVESGGGVVQPGRSLRLSCAASGFTFSSYAMHWVRQAPGKGLEWVAVISYDGSNKYYADSVKGRFTISRDNSKNTLYLQMNSLRAEDTAVYYCASGRYYGSGSYSSYFDYWGQGTLVTVSS VL: DIQMTQSPSSLSASVGDRVTITCRASQGISSWLAWFQQKPEKAPKSLIYAASSLQSGVPSRFSGSGSGTDFTLTISSLQPEDFATYYCQQYNSYPLTFGGGTKVEIK					1.05	2530	0.04		90	97	5	92	0.03	0.38		0.05
HuMab-CD74-005 (antibody, human IgG1, V domains shown, Human IgG1,kappa; produced transiently in HEK-293F cells; also called antibody 005) VH: QVQLVESGGGVVQPGRSLRLSCAASGFTFSSYAMHWVRQAPGKGLEWVAVISYDGSNKYYADSVKGRFTISRDNSKNTLYLQMNSLRAEDTAVYYCASGRYYGSGSYSSYFDYWGQGTLVTVSS VL: DIQMTQSPSSLSASVGDRVTITCRASQGISSWLAWFQQKPEKAPKSLIYAASSLQSGVPSRFSGSGSGTDFTLTISSLQPEDFATYYCQQYNSYPLTFGGGTKVEIK					1.27	2780	0.03									
